Data on four molecules can be found in patent US20150376238A1 (University of Washington, published 2015).

B1: Variant H3 24-8 (V27M, K49E) (designed binder)
chain: GTGMVAISMDTDKISNSFEDCKYFLIMVVSAGWTNTIFNDESGKKEIVEMNVDAIICKNISEENYKKFSKKIEIYHAEGDDVDKNISLFIEGELSKISNPLE
B2: Variant H3 24-3b (V28M) (designed binder)
chain: GTGMVAISMDTDKISNSFEDCKYFLIVMVSAGWTNTIFNDESGKKEIVKMNVDAIICKNISEENYKKFSKKIEIYHAEGDDVDKNISLFIEGELSKISNPLE
B3: Variant H3 24-3a (I2T, V29E) (designed binder)
chain: GTGMVAISMDTDKISNSFEDCKYFLIVVESAGWTNTIFNDESGKKEIVKMNVDAIICKNISEENYKKFSKKIEIYHAEGDDVDKNISLFIEGELSKISNP
B4: Variant H3 24-2 (V27M, F38S, K49E) (designed binder)
chain: GIGMVAISMDTDKISNSFEDCKYFLIMVVSAGWTNTISNDESGKKEIVEMNVDAIICKNISEENYKKFSKKIEIYHAEGDDVDKNISLFIEGELSKISNP

This assay addresses H3 subtype hemagglutinin (strain not stated).
The Kd is the equilibrium constant for the complex coming apart. Consider B1, for which the Kd was determined as 14.8 nM.

In turn, B2 displayed a Kd of 12.7 nM.

As for B3, the Kd came out at 7.92 nM.

Regarding B4, the Kd worked out at 8.97 nM.
